Experimental data published in patent US20140366219A1, “Increasing Soybean Defense Against Pests” (priority 2011, published 2014).

Key:
[1] = target: T1, NtSABP2 (Nicotiana tabacum, UniProt Q6RYA0); details: esterase activity toward MeSA; cited from earlier work
T1 sequence (Q6RYA0 1-260): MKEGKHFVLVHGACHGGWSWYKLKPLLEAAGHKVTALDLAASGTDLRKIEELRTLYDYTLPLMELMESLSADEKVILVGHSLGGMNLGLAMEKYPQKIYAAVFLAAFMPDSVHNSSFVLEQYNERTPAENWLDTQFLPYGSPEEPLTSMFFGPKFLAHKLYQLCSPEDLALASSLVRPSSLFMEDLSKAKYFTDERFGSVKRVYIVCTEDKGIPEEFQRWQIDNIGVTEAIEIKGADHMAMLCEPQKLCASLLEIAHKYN

[2] = test system: PtSABP2-2; details: esterase activity toward MeSA; cited from earlier work
[3] = target: T2, AtMES1 (Arabidopsis thaliana, UniProt Q8S8S9); details: esterase activity toward MeSA; cited from earlier work
T2 sequence (Q8S8S9 1-263): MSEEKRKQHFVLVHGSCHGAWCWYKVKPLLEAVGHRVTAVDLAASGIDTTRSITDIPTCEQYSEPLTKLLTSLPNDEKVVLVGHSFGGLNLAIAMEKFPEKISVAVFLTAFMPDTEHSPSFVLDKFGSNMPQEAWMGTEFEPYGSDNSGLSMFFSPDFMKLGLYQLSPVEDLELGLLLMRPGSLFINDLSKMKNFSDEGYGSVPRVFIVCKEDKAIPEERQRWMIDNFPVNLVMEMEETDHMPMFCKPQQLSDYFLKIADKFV

[4] = target: T3, AtMES9 (Arabidopsis thaliana, UniProt O23171); details: esterase activity toward MeSA; cited from earlier work
T3 sequence (O23171 1-256): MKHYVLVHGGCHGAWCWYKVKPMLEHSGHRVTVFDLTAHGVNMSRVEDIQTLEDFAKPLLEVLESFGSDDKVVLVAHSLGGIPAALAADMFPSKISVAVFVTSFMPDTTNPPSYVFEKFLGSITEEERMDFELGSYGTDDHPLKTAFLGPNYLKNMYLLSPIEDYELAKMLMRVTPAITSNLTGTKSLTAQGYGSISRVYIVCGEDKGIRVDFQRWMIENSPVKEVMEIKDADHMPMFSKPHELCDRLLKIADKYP

[5] = test system: PtSABP2-1; details: esterase activity toward MeSA; cited from earlier work
[6] = test system: StMES1; details: esterase activity toward MeSA; cited from earlier work
[7] = substrate: COC(=O)c1ccccc1O; test: Two-step radiochemical methyl ester esterase assay, kinetic parameters of GmSABP2-1; assay type: biochemical, soybean; details: other: MeSA 5 μM to 100 μM, Lineweaver-Burk; 25.0 °C
Protocol: A two-step radiochemical esterase assay was performed to determine the activity of E. coli-expressed Glyma16g26060 following a protocol previously reported by (Forouhar et al., Proc. Natl. Acad. Sci. USA 102: 1773-1778, 2005). The reaction of the first step was the reaction of substrate 10 μM MeSA and purified recombinant E. coli-expressed Glyma16g26060 for 30 min at 25° C. After that, the sample was boiled to stop the reaction and denature the enzyme. The second reaction step was started with the addition of 3 μM ^14C labeled S-adenosyl-L-methionine (SAM) with a specific activity of 51.4 mCi/mmol (Perkin Elmer, Boston, Mass., USA), and respective known purified methyltransferase with high activity. Here, GmSAMT1 mentioned previously was used for SA methyltransferase enzyme. The reaction was preceded for 30 min at 25° C. Then radiolabeled products were extracted and the radioactivity was counted using a liquid scintillation counter.
Appropriate enzyme concentrations and incubation time were determined in time-course assays so that the reaction velocity was linear during the assay period. To determine the Km for MeSA, the concentrations of MeSA were independently varied in the range from 5 μM to 100 μM. Lineweaver-Burk plots were made to obtain apparent Km value. Optimal pH for GmSABP2-1 was assayed from pH 6.0 to pH 9.0. Final values are an average of three independent measurements.

[8] = test system: SCN race 2; test: Nematode infection and demographics assay in transgenic soybean hairy roots; assay type: in vivo, Heterodera glycines; details: for reduction of susceptibility: susceptibility of vector control in susceptible background set at 100%; for (J3+J4)/total SCN ratio: overexpressing transgenic hairy roots, two weeks after inoculation
Description: The soybean hairy root transformation system by infection with A. rhizogenes harboring the target genes were modified and used to study soybean resistance against SCN. A. rhizogenes K599 harboring the target gene, vector control and A. rhizogenes K599 alone were used to inoculate the TN02-275 soybeans, which are susceptible to SCN race 2. To better evaluate the resistance of the target gene, A. rhizogenes harboring the vector control and A. rhizogenes K599 alone were also used to inoculate the TN02-226 soybeans, which are resistant to SCN race 2. Generation of soybean hairy roots was modified as follows: First, soybean seeds were sterilized with chlorine gas. Second, a single layer of mature soybean seeds with intact seed coats were placed in open Petri dish, which was put in a bell jar desiccator within a fume hood. A beaker with 100 ml bleach was also placed in the desiccator and added 5 ml concentrated (12N) HCl along the side of the beaker. Then the seeds were kept in the closed desiccator immediately and maintained in the chlorine gas atmosphere overnight (about 16 h). After sterilization, seeds were transferred to the autoclaved filter paper moistened with sterilized distilled water in the Petri dishes for germination in a laminar flow hood. The germinated soybean seeds were sowed in sterilized vermiculite and six seeds were grown in each cell of 18-cell germination tray. The overnight cultured bacteria lawn of A. rhizogenes K599 with binary vector pJL-OFP, pJL-OFP-35S::GUS or pJL-OFP-35S::GmSAMT1 from LB medium plate containing […] kanamycin, or a culture of A. rhizogenes K599 lacking the binary vector grown in LB medium without any antibiotics was collected and suspended in 1 ml of sterile distilled water, respectively. Soybean cotyledonary nodes and upper hypocotyls of 5-day-old seedlings with unfolded cotyledons were stabbed three times by the syringe containing the bacterial suspension. In the first week, the trays were covered with the sterile transparent lids to retain high humidity. In the subsequent three weeks, plants were transferred into pots and the A. rhizogenes wounding sites were covered by wet sterile vermiculite to continually keep high humidity. Each day soybean plants were watered using sterile B&D solution containing 1 mM CaCl2, 0.5 mM KH2PO4, 10 μM Fe-citrate, 0.25 mM MgSO4, 0.25 mM K2SO4, 1 μM MnSO4, 2 μM H3BO4, 0.5 μM ZnSO4, 2 μM CuSO4, 0.1 μM CoSO4, 0.1 μM Na2MoO4, and 1 mM KNO3. The growth conditions for soybean plants were 12 h light/12 h dark at 28° C./25° C. with irradiance from fluorescent bulbs at 150-200 μmol m^−2·s^−1. After about four weeks, the hairy roots grew to approximately 10 cm in length. Soybean transgenic roots were detected based on OFP expression, using a fluorescence stereomicroscope (Olympus SZX12 fluorescence microscope and OFP filter). The tap root and non-transgenic roots were excised under the wounding site. Transgenic roots harboring pJL-OFP-35S::GUS screened by OFP signal were immersed in GUS solution (1 mM X-Gluc), 0.5 mM potassium ferrocyanide, 0.1% (v/v) TRITON™ X-100, 100 mM sodium phosphate buffer pH 7.0), and incubated at 37° C. overnight. In the following day, the X-Gluc solution was discarded. The roots were washed repeatedly with 70% ethanol to remove chlorophyll. Transgenic roots with visual GUS stain were recorded.
To easily compare the SCN infection, one transgenic root was left for the SCN inoculation. […]

[9] = test system: GmICS1 (Glyma01g25690); test: qRT-PCR of GmICS1 in transgenic hairy roots; parameters: species or system soybean; details: Williams 82 transgenic hairy roots, without SCN treatment
[10] = test system: GmICS2 (Glyma03g17420); test: qRT-PCR of GmICS2 in transgenic hairy roots; parameters: species or system soybean; details: Williams 82 transgenic hairy roots, without SCN treatment

For `COC(=O)c1ccccc1O` [MeSA, methyl salicylate], the Km [1] is given as 8.6 µM, the Km [2] is given as 24.6 µM and the Km [3] is given as 57.3 µM. For the same molecule, the Km [4] was 147 µM, the Km [5] was 68.2 µM and the Km [6] was 57.9 µM.

B1: GmSABP2-1 (Glycine max) (protein)
chain: MGSQNCMDRKHYVLVHGACHGAWCWYKLKPRLESAGHKVTVLDLAASGTNMKKIEDVDTFSEYSAPLLQLMATIPSNEKLVLVGHSLGGLNIALAMEKFPEKVAVGVFLTAFAPDTEHHPSYVLEKYNERTPLAAWLDTEFAPSGNKTSMFFGPNFLSDKLYQLSPIEDLELAKTLARPSSLFMEDLTKQKNFSKEGYGSVPRAFIVCTEDLGIPLEYQLLMIQNVGFNDVVEVKDADHMVMLCKPQELFDSLQQIATKYA
Molecule B1 has a Km [7] of 46.2 ± 2.2 µM.

B2: GmSAMT1: soybean salicylic acid methyltransferase gene (SEQ ID NO: 1), over-expressed in transgenic hairy roots via pJL-OFP-35S::GmSAMT1 (nucleic acid)
DNA: ATGGAAGTAGCACAGGTACTCCACATGAACGGTGGCGTTGGAGACGCAAGCTATGCAAACAACTCCCTTGTTCAGCAAAAGGTGATTTGTTTGACAAAGCCCATAAGAGAGGAAGCCATAAGAAGCCTCTATTGCAGCACACACCCCAGAAGCTTGGCAATTGCAGATTTGGGTTGCTCTTCTGGACCAAACACTTTATTTGTTGTGTCTGAATTCATAAAAATTGTGGAGAAGCTTTGCCGAGAGCTGAACCACAAATCTCCAGAATACAAAGTCTTTCTGAATGATCTCCCTGGGAATGACTTCAACAACATCTTCAAGTCTCTTGACAGCGTCAAAGAGAAATTGTGTGATGAAATGGAAAGTGGGATCGGTCCATGCTACTTCTCGGGTGTTCCCGGTTCTTTCTATGGAAGGGTTTTCCCATATCAAAGTCTTCATTTTGTCCATTCCTCATACAGCCTTCAATGGCTATCTAAGGTTCCTGAGGGTGTAGACAACAACAAGGGCAATGTTTACATAGGCAGTACGAGCCCCAAAAATGTTGTGAGAGCTTACTATGAGCAATTTCAGAGAGATTTCTCTCTTTTTCTCAAGTGTCGTGCAGAGGAATTGGTTGAAGGAGGACGCATGGTTCTCACATTTTTGGGAAGAAGAAGCGATGATCCATCTAGCAAGGATGGTTGCTACATTTGGGAGCTTTTGGCTACTGCTCTTAGTGATATGGTCTTGCAGGGAATCATAAGAGAAGAGCAATTAGATACTTTTAACATCCCTCAATACACTCCATCCCCATCTGAAGTGAAATTGGAAGTTCTTAAAGAAGGATCATTCGCCATCAATCGTCTAGAGGTTTCTGAGGTGAATTGGAATGCTCTCGATGAGTGGAATGCTCTAGACTTTGAATCTGAAAGGTCTGAATCACTTAGTGATGGTGAATACAATGTGGCACAGTGCATGAGGGCTGTGGCAGAACCTATGCTGATTAGCCACTTTGGTGAAGCTATCATTGAAGAGGTTTTTTGCCGCTACCAGCAAATCTTGGCTGAACGTATGTCCAAGGAGAAAACCAAGTTCATCAATGTTACCATATTATTGACTAGAAAAGCATAA
modifications: Glycine Max
With B2 the reduction of susceptibility ([8]; TN02-275 background) was 85.6%, the reduction of susceptibility ([8]; Williams 82 background) was 71.2% and the “(J3+J4)/total SCN ratio” value ([8]; TN02-275 background) was 3.4%. The “(J3+J4)/total SCN ratio” value ([8]; Williams 82 background) was 5.3%, the “GmICS1 transcript abundance relative to controls” value [9] was 5.3 times and the “GmICS2 transcript abundance relative to controls” value [10] was 8.2 times.
